Source: publication PMC10470768

How the values were obtained:
[1] = tested on: Tde1tox H279A/D282A (catalytically inactive Ntox15 domain) (Phocaeicola vulgatus); assay: BLI; details: BLI (Octet Red96), biotinylated oligo on streptavidin sensors, Octet kinetics buffer (Sartorius), association 300 s, dissociation 600 s, one-site equilibrium …
[2] = target: Tdi orphan A (TdioA), orphan immunity protein; assay: BLI; Octet Red96; hexahistidine immunity proteins (5 mg/mL) immobilised on NTA biosensors; varying concentrations of Tde1^tox H279A/D282A in Octet kinetics buffer; association 300 s, dissociation 600 s; one site fit of equilibrium binding data
[3] = target: Tdi orphan B (TdioB), orphan immunity protein; assay: as above
[4] = target: Tdi1 (cognate immunity protein of Tde1) (Phocaeicola vulgatus); assay: as above

With “30-bp random-sequence biotinylated dsDNA” the Kd [1] was 500 nM.

With “30-nt random-sequence biotinylated ssDNA” the Kd [1] was 500 nM.

Work on “Tde1^tox H279A/D282A (catalytically inactive Ntox15 domain of the Hcp-Ntox15 effector Tde1) (domain or fragment)” yielded a Kd [2] of 24 nM, a Kd [3] of 19 nM and a Kd [4] of 18 nM.
